The target in experiment [1] is Deinococcus radiodurans NurA (Deinococcus radiodurans). Kind of experiment: cryo-EM structure; purified drNurA-HerA complex, low-resolution (~9 Å) map, 200 kV, 3D refinement with C2 symmetry; drHerA crystal structure and an AlphaFold2 model of drNurA fitted and refined into the map.
In experiment [2] the target is HerA with point mutations D78A, E80A, and D81A (Deinococcus radiodurans).
The target of experiment [3] is Deinococcus radiodurans HerA (Deinococcus radiodurans).
For experiment [4], the target named is T1, drHerA (Deinococcus radiodurans, UniProt Q9RW32).
T1 construct: gene DR_0837; full length, residues 1-618, N-terminal 6xHis tag (pET28a), expressed in E. coli Rosetta (DE3); homohexamer; ADP site between two protomers
T1 sequence (Q9RW32 1-618): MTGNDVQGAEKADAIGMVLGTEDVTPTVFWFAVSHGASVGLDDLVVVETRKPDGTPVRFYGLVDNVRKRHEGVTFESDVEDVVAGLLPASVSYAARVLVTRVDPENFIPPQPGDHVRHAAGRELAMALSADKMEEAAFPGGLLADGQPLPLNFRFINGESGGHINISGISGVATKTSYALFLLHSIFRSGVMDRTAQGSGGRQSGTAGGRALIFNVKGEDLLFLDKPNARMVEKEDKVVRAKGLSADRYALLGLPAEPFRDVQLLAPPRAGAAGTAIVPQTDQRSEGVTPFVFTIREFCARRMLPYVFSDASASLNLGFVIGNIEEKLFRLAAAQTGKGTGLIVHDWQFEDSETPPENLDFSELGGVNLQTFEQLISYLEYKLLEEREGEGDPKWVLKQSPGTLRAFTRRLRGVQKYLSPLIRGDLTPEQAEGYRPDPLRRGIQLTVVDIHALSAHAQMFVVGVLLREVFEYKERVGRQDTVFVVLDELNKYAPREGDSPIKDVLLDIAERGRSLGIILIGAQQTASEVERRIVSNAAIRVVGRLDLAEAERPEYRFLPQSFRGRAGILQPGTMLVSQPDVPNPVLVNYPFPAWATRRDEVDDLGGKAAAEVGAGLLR
As to the kind of experiment: X-ray crystal structure, […] Å. It counts as binding. To be noted: Mg2+; crystals set up with ADP, NaF and AlCl3, only ADP seen; one ADP per protomer.

Experiment [5] deals with Deinococcus radiodurans HerA (Deinococcus radiodurans). As to the kind of experiment: cryo-EM structure; purified drNurA-HerA complex, low-resolution (~9 Å) map, 200 kV, 3D refinement with C2 symmetry; drHerA crystal structure and an AlphaFold2 model of drNurA fitted and refined into the map.
Experiment [6] has the same target. Kind of experiment: crystal structure; drHerA with ADP bound (set up with ADP•AlF3, MgAc), space group P2(1)2(1)2(1), 3.4 Å; 0.2 M MgCl2, 0.1 M HEPES (pH 7.8), 14% PEG 3350.
Experiment [7] shares this target. Kind of experiment: crystal structure; drHerA without any ligand, space group P3(1)21, 3.0 Å; sitting drop at 289 K, 0.1 M HEPES (pH 7.5), 1.3 M NaAc.
For experiment [8] the target is unchanged. Kind of experiment: cryo-EM structure; 2D class averages (top views) of purified drHerA alone, with ADP, with ADPNP or with 46-bp dsDNA; 200 kV Tecnai F20.

In experiment [1], Deinococcus radiodurans NurA (enzyme) displayed a stoichiometry N of 2. In experiment [2], this compound gave an ATPase activity of HerA^m with drNurA, Mn2+, ds DNA (ATPase mol/protein/min) of 0.38; an ATPase activity of HerA^m with drNurA, Mn2+, no DNA (ATPase mol/protein/min) below 0.01; an ATPase activity of HerA^m with drNurA, Mn2+, ss DNA (ATPase mol/protein/min) of 6.01. In experiment [3], this compound gave an ATPase activity of drHerA with drNurA, Mn2+, ds DNA (ATPase mol/protein/min) of 4.18; an ATPase activity of drHerA with drNurA, Mn2+, no DNA (ATPase mol/protein/min) of 0.42; an ATPase activity of drHerA with drNurA, Mn2+, ss DNA (ATPase mol/protein/min) of 28.6.

As to `Nc1ncnc2c1ncn2[C@@H]1O[C@H](COP(=O)(O)OP(=O)(O)O)[C@@H](O)[C@H]1O` [ADP], in experiment [4], the “X-ray crystal structure, 3.4 Å” value is on record as “each protomer is bound to one ADP molecule”.

As to Deinococcus radiodurans HerA (enzyme), the stoichiometry N in experiment [5], in experiment [6], in experiment [7] and in experiment [8] was 6 in each case.

As a reminder, the stoichiometry N is a count of units in the complex or per binding partner.

These data come from paper PMC9960219, “Structural and DNA end resection study of the bacterial NurA-HerA complex” (BMC Biology, 2023).
